According to PMC11408855, “The structure of the SufS–SufE complex reveals interactions driving protected persulfide transfer in iron-sulfur cluster biogenesis” (The Journal of Biological Chemistry, 2024):
Positions count from the first letter of the chain named. Names may count otherwise.

Assays:
Assay in all cases: fluorescence polarisation; 100 nM BODIPY-FL-labeled EcSufE titrated with EcSufS; 50 mM Mops pH 8.0, 150 mM NaCl, 0.1 mg/ml bovine serum albumin, 25 °C, 30 min; absence of cysteine; apparent KD
Conditions in all cases: both partners purified
[1] = biological target: T1, Y354A EcSufS, C-terminal his-tagged (Escherichia coli, UniProt P77444 1-406, Y354A, PLP (pyridoxal 5'-phosphate) cofactor)
T1 construct: EcSufS of Escherichia coli, UniProt P77444, with Y354A; also called Y354A SufS; source: E. coli BL21(DE3)Δsuf, pET44, autoinduction, purified (Ni2+ HisTrap HP); not shown: His tag, C-terminal, kept
T1 sequence: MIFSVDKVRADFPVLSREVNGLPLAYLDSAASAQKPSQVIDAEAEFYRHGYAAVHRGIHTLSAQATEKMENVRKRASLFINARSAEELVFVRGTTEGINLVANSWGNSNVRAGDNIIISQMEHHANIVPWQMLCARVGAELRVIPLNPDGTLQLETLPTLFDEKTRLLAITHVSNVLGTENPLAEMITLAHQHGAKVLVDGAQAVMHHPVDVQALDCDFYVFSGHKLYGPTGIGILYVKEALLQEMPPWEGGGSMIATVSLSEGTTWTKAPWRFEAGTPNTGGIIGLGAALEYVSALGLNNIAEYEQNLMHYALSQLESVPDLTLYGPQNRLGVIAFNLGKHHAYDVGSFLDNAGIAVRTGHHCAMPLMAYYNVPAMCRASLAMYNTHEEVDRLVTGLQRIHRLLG

[2] = biological target: T2, N353A EcSufS, C-terminal his-tagged (Escherichia coli, UniProt P77444 1-406, N353A, PLP (pyridoxal 5'-phosphate) cofactor)
T2 construct: EcSufS of Escherichia coli, UniProt P77444, with N353A; also called N353A SufS; source: E. coli BL21(DE3)Δsuf, pET44, autoinduction, purified (Ni2+ HisTrap HP); not shown: His tag, C-terminal, kept
T2 sequence: T1 sequence with N353A, A354Y

[3] = biological target: T3, D346A EcSufS, C-terminal his-tagged (Escherichia coli, UniProt P77444 1-406, D346A, PLP (pyridoxal 5'-phosphate) cofactor)
T3 construct: EcSufS of Escherichia coli, UniProt P77444, with D346A; also called D346A SufS; source: E. coli BL21(DE3)Δsuf, pET44, autoinduction, purified (Ni2+ HisTrap HP); not shown: His tag, C-terminal, kept
T3 sequence: T1 sequence with D346A, A354Y

[4] = biological target: T4, Y345A EcSufS, C-terminal his-tagged (Escherichia coli, UniProt P77444 1-406, Y345A, PLP (pyridoxal 5'-phosphate) cofactor)
T4 construct: EcSufS of Escherichia coli, UniProt P77444, with Y345A; also called Y345A SufS; source: E. coli BL21(DE3)Δsuf, pET44, autoinduction, purified (Ni2+ HisTrap HP); not shown: His tag, C-terminal, kept
T4 sequence: T1 sequence with Y345A, A354Y

Kd [1]: > 20 µM
Kd [2]: 0.06 µM
Kd [3]: > 40 µM
Kd [4]: > 20 µM
B1: BODIPY-FL-labeled C51A/E107C EcSufE (natural protein, Escherichia coli)
chain: MALLPDKEKLLRNFLRCANWEEKYLYIIELGQRLPELRDEDRSPQNSIQGAQSQVWIVMRQNAQGIIELQGDSDAAIVKGLIAVVFILYDQMTPQDIVNFDVRPWFCKMALTQHLTPSRSQGLEAMIRAIRAKAAALS
modifications: BODIPY-FL maleimide label (labeling efficiency 60 to 80%)
notes: EcSufE, transpersulfurase SufE of Escherichia coli, UniProt P76194, with C51A and E107C; also called "WT" EcSufE (double mutant background); C51A/E107C EcSufE control
